Data reported in IntAct's records for PubMed 23208550.

B1: Arrestin domain-containing protein 3 (Homo sapiens), Q96B67 (parent)
chain: MVLGKVKSLTISFDCLNDSNVPVYSSGDTVSGRVNLEVTGEIRVKSLKIHARGHAKVRWTESRNAGSNTAYTQNYTEEVEYFNHKDILIGHERDDDNSEEGFHTIHSGRHEYAFSFELPQTPLATSFEGRHGSVRYWVKAELHRPWLLPVKLKKEFTVFEHIDINTPSLLSPQAGTKEKTLCCWFCTSGPISLSAKIERKGYTPGESIQIFAEIENCSSRMVVPKAAIYQTQAFYAKGKMKEVKQLVANLRGESLSSGKTETWNGKLLKIPPVSPSILDCSIIRVEYSLMVYVDIPGAMDLFLNLPLVIGTIPLHPFGSRTSSVSSQCSMNMNWLSLSLPERPEAPPSYAEVVTEEQRRNNLAPVSACDDFERALQGPLFAYIQEFRFLPPPLYSEIDPNPDQSADDRPSCPSR

Legend:
[1] = variants of: B1; conditions: with nedd4_human NEDD4, P46934
hgs_human HGS, O14964 = variants of: B1; conditions: with hgs_human HGS
[2] = variants of: B1; conditions: with adrb2_human ADRB2, P07550
[3] = variants of: B1; conditions: with adrb2_human ADRB2, P07550; remark: listed apart in the source

nedd4_human NEDD4, P46934, sequence (P46934 whole entry): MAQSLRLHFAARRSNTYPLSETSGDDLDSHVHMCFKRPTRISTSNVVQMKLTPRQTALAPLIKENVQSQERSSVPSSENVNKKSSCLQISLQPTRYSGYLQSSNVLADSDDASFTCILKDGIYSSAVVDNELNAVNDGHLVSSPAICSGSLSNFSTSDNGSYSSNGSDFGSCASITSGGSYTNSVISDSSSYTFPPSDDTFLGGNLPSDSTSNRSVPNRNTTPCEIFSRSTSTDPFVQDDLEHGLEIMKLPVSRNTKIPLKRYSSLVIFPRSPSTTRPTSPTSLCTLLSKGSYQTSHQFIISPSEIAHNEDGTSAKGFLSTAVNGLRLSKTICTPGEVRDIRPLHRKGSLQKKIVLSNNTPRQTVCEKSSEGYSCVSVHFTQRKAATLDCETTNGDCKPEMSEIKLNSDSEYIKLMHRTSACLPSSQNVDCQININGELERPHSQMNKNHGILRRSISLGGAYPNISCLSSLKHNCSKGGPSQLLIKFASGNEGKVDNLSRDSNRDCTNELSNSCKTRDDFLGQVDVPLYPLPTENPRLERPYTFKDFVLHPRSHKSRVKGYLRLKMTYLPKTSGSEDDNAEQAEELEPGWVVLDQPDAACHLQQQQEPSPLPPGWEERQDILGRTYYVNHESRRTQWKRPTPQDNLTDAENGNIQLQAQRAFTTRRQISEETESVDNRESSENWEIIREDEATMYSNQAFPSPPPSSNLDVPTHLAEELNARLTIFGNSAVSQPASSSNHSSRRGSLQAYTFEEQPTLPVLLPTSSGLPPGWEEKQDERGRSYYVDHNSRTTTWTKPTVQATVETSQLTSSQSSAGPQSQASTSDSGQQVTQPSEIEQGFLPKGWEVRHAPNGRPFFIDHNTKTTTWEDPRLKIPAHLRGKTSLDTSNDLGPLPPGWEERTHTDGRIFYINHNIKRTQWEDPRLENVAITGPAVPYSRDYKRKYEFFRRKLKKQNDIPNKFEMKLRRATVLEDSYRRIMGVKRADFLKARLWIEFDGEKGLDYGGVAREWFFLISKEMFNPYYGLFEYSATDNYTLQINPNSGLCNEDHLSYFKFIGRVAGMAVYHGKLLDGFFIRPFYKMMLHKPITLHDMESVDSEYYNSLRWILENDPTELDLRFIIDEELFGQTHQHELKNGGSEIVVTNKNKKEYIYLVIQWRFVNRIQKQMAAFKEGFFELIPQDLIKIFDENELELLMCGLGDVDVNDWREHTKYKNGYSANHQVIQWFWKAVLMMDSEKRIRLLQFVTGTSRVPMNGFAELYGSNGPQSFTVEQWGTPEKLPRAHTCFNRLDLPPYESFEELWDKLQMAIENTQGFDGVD
hgs_human HGS, O14964, sequence (O14964 whole entry): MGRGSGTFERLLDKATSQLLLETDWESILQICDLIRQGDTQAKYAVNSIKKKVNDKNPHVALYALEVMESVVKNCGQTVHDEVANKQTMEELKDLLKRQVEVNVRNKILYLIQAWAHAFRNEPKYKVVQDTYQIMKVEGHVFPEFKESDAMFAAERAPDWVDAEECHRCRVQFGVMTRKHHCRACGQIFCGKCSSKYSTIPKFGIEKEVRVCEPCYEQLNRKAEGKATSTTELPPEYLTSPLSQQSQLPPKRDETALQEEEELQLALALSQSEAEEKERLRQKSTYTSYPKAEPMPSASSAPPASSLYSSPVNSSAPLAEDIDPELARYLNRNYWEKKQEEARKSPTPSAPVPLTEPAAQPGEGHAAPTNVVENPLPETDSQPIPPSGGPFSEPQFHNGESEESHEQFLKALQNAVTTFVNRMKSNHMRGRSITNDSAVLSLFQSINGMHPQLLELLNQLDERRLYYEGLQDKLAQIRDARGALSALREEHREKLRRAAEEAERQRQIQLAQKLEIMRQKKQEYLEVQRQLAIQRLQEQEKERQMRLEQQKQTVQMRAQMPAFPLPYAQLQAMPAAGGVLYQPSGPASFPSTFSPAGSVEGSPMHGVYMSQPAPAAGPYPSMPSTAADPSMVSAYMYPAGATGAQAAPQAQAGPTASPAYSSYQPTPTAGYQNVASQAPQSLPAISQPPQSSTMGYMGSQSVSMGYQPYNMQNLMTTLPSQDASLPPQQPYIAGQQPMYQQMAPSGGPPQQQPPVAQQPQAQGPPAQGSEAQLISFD

Variant: MVLGKVKSLTISFDCLNDSNVPVYSSGDTVSGRVNLEVTGEIRVKSLKIHARGHAKVRWTESRNAGSNTAYTQNYTEEVEYFNHKDILIGHERDDDNSEEGFHTIHSGRHEYAFSFELPQTPLATSFEGRHGSVRYWVKAELHRPWLLPVKLKKEFTVFEHIDINTPSLLSPQAGTKEKTLCCWFCTSGPISLSAKIERKGYTPGESIQIFAEIENCSSRMVVPKAAIYQTQAFYAKGKMKEVKQLVANLRGESLSSGKTETWNGKLLKIPPVSPSILDCSIIRVEYSLMVYVDIPGAMDLFLNLPLVIGTIPLHPFGSRTSSVSSQCSMNMNWLSLSLPERPEAPPSAAEVVTEEQRRNNLAPVSACDDFERALQGPLFAYIQEFRFLPPPLYSEIDPNPDQSADDRPSCPSR [Y349A]
- effect of a mutation on the interaction [1]: disrupting interaction
- effect of a mutation on the interaction (hgs_human HGS, O14964): disrupting interaction
- effect of a mutation on the interaction [2]: decreasing interaction
- effect of a mutation on the interaction [3]: disrupting interaction

Variant: MVLGKVKSLTISFDCLNDSNVPVYSSGDTVSGRVNLEVTGEIRVKSLKIHARGHAKVRWTESRNAGSNTAYTQNYTEEVEYFNHKDILIGHERDDDNSEEGFHTIHSGRHEYAFSFELPQTPLATSFEGRHGSVRYWVKAELHRPWLLPVKLKKEFTVFEHIDINTPSLLSPQAGTKEKTLCCWFCTSGPISLSAKIERKGYTPGESIQIFAEIENCSSRMVVPKAAIYQTQAFYAKGKMKEVKQLVANLRGESLSSGKTETWNGKLLKIPPVSPSILDCSIIRVEYSLMVYVDIPGAMDLFLNLPLVIGTIPLHPFGSRTSSVSSQCSMNMNWLSLSLPERPEAPPSYAEVVTEEQRRNNLAPVSACDDFERALQGPLFAYIQEFRFLPAPLYSEIDPNPDQSADDRPSCPSR [P391A]
- effect of a mutation on the interaction [1]: disrupting interaction
- effect of a mutation on the interaction (hgs_human HGS, O14964): disrupting interaction
- effect of a mutation on the interaction [2]: decreasing interaction
- effect of a mutation on the interaction [3]: disrupting interaction

Variant: MVLGKVKSLTISFDCLNDSNVPVYSSGDTVSGRVNLEVTGEIRVKSLKIHARGHAKVRWTESRNAGSNTAYTQNYTEEVEYFNHKDILIGHERDDDNSEEGFHTIHSGRHEYAFSFELPQTPLATSFEGRHGSVRYWVKAELHRPWLLPVKLKKEFTVFEHIDINTPSLLSPQAGTKEKTLCCWFCTSGPISLSAKIERKGYTPGESIQIFAEIENCSSRMVVPKAAIYQTQAFYAKGKMKEVKQLVANLRGESLSSGKTETWNGKLLKIPPVSPSILDCSIIRVEYSLMVYVDIPGAMDLFLNLPLVIGTIPLHPFGSRTSSVSSQCSMNMNWLSLSLPERPEAPPSYAEVVTEEQRRNNLAPVSACDDFERALQGPLFAYIQEFRFLPPALYSEIDPNPDQSADDRPSCPSR [P392A]
- effect of a mutation on the interaction [1]: disrupting interaction
- effect of a mutation on the interaction (hgs_human HGS, O14964): disrupting interaction
- effect of a mutation on the interaction [2]: decreasing interaction
- effect of a mutation on the interaction [3]: disrupting interaction

Variant: MVLGKVKSLTISFDCLNDSNVPVYSSGDTVSGRVNLEVTGEIRVKSLKIHARGHAKVRWTESRNAGSNTAYTQNYTEEVEYFNHKDILIGHERDDDNSEEGFHTIHSGRHEYAFSFELPQTPLATSFEGRHGSVRYWVKAELHRPWLLPVKLKKEFTVFEHIDINTPSLLSPQAGTKEKTLCCWFCTSGPISLSAKIERKGYTPGESIQIFAEIENCSSRMVVPKAAIYQTQAFYAKGKMKEVKQLVANLRGESLSSGKTETWNGKLLKIPPVSPSILDCSIIRVEYSLMVYVDIPGAMDLFLNLPLVIGTIPLHPFGSRTSSVSSQCSMNMNWLSLSLPERPEAPPSYAEVVTEEQRRNNLAPVSACDDFERALQGPLFAYIQEFRFLPPPLASEIDPNPDQSADDRPSCPSR [Y394A]
- effect of a mutation on the interaction [1]: disrupting interaction
- effect of a mutation on the interaction (hgs_human HGS, O14964): disrupting interaction
- effect of a mutation on the interaction [2]: decreasing interaction
- effect of a mutation on the interaction [3]: disrupting interaction
